Experimental findings from the DeepSol protein solubility set are described below.

This data set is described as follows: soluble on expression in E. coli; label from the status in PepcDB or PDB records.
Turning to “QPTAPKDFSSGFWDFNDGTTQGFGVNPDSPITAINVENANNALKISNLNSKGSNDLSEGNFWANVRISADIWGQSINIYGDTKLTMDVIAPTPVNVSIAAIPQSSTHGWGNPTRAIRVWTNNFVAQTDGTYKATLTISTNDSPNFNTIATDAADSVVTNMILFVGSNSDNISLDNIKFTK”, the “soluble on expression in E. coli” value is listed as “soluble”.

“QQGNPNLSSPQPILDTIYKLLSEQEQTLVQMIHEQSLLLNRLPPTLDENSLAPLKSLSQKQITLSGQMNTEMSALDATKKGMILEPTDLAKLFALKQDLQIQFKQLSLLHNEIQSILNPQHSAPKPNVALVLKSQPFPVVISKGKQLGENQLVVLVLTGARSNFHINGPVKATMICDSHPTNKNNPTTPLEMDSQPIYPATLTAHFPLKFLAGTRKCSVNLKFGVNIRDLDNVTTTVESDASNPFVVITNECQWEGSAGVLLKKDAFDGQLEITWAQFINTLQRHFLIATKQDPVRPKRPLSSYDLKYIQTHFFGNRSIIHQQDFDKFWVWFGKSMQTLRYQRHISTLWQEGIIYGYMGRQEVNDALQNQDPGTFIIRFSERNPGQFGIAYIGVEMPARIKHYLVQPNDTAAAKKTFPDFLSEHSQFVNLLQWTKDTNGAPRFLKLHKDTALGSFAPKRTAPVPVGGYEPLNS”: the “soluble on expression in E. coli” value is given as “soluble”.

As to “QSELTQPRSVSGSPGQSVTISCTGTSRDVGGYNYVSWYQQHPGKAPKLIIHDVIERSSGVPDRFSGSKSGNTASLTISGLQAEDEADYYCWSFAGSYYVFGTGTDVTVLGQPKANPTVTLFPPSSEELQANKATLVCLISDFYPGAVTVAWKADGSPVKAGVETTKPSKQSNNKYAASSYLSLTPEQWKSHRSYSCQVTHEGNTVEKTVAPT”, the “soluble on expression in E. coli” value is on record as “soluble”.

Regarding “QSQSNQATPSKVVSGEVNAASFAQFSNAFIDDLWQLSPTWALYSGKHVNDGYLEIPDEAGRVKTLAFVKAQQAKLKQFELKSLTSNETIDYHLIDNLLSSMAWDITRFKSWQWDPSSYNVAGGFAQIINENFAPLDDRLRSVLARMENIPAYYAAARGNISQPTLEHTELAVLQNQGAFSVFSDDLLKQVADSGLSDAEKALFKTRFDIASKAINEHISWLNAQVSQLKKEGARSFRIGEELYEQKFAFDIQAGMTAKQLYQKAMVDKDRVQGEMAKITDKLWPKYFTTPKPSDNKIAIRQLIDKLSTKHVKRDDFVSEVRKQIPELIEFVNQKNIVTLDPKKPLVVRETPEYMRGYAGASISAPGPYDKLGNTYYNVTPLDGMSNESAESYLREYNHWILQILNIHEAIPGHYTQLVYSNESPSLVKSLFGNGAMVEGWAVYTERMMLEEGYGNFEPEMWLMYYKWNLRVICNTILDYSIHVKGMTEEQAIALMMDEAFQQRAEAEGKWRRATLSQVQLTSYYSGYREIYDFREEYKQLKGKDFDLKAFHEKFLSYGSAPVKYIRQLMLE”, the “soluble on expression in E. coli” value is “soluble”.

As for “QTIFRVQTPYTHNGYMKTECYAFDFAPDRTLRVLAEAAKVSYKAGKQSESDRKLLGDFLNFCPIISIEGSRMKPYDVNTMLGQLKRAQIEKVVQDGFENGALYNDELLKLTEVELHDFDELKGIIGKTKAMAKSGDIDINHQGLTHEQYEEKERLEKRKKKGLTPEEKKRLDELKAKGDQRREAISILRGISIRMPLMLYGAEMKDEDKELTIDNFANLVDEQSWQEFMPRGVTKAVFRRFKRYYDPDIFREAGKRIREMARMADKFTIEERIGRIASIFSTFRNPDKETVLTPWRVVNMHLGDSIGGYCFMSEDFSTPIALPRYIEHQGITNEVFHPKSIILEINSKSGLYPLYAAYNIYRTRVEEAREKYGDVTRAFALQLWDRTLEENIFVVCKTPMARYITMRTLRGFRDVVTHTEHYPDLIENITSQPDSVVNMLRSGKRFWKINNDENMKIDAIIGNPPYQVMNQGKGNGSDPIYHKFFDLAMVLAPQGTLIHPARFLFNAGKTPKEWNEKMLSDKHYRVVDYWPNSAEVFPTVDVKGGIATSYWNKKMILGPIGMFSAFDELHHILYKVEQTNPLPFSNLVAPRELYRITDELYQEHPDLNGRQSAGHKYSFGANIFDVFPEVFFDEYPQGREEKMACIYGRANKQRCYKWCKRSYITHPENFAKYKVIIPKTNGSGAIGE”, the “soluble on expression in E. coli” value is on record as “not soluble”.

Take “QTINKIDLQALEESQIDWAKYQPHQAVVLKARKQLRDHQQTALNATAAGLNDAERGKLIMACGTGKTFTSLKIAERLAGKGKRVLFLVPSLSLLSQTLTEWTQESETPLHSFAVCSDSDVGKKRKADEDTVQVFTHELRYPATTKADRLAAEMLKRHDAEHMSVVFSTYHSIDVISRAQHEYDLAAFDLVICDEAHRTTGATFDDDDESTFVRIHDVDYIRAIKRLYMTA”: the “soluble on expression in E. coli” value is recorded as “not soluble”.

Turning to “QVKLQQSGGGLVKPGASLKLSCVTSGFTFRKFGMSWVRQTSDKCLEWVASISTGGYNTYYSDNVKGRFTISRENAKNTLYLQMSSLKSEDTALYYCTRGYSSTSYAMDYWGQGTTVTVSGIEGR”, the “soluble on expression in E. coli” value is listed as “soluble”.

Turning to “QVQLLQPGAELVKPGASVKLSCKASGYTFTSYWMYWVKQRPGQGLEWIGEIDPSDSYTNYNQNFKGKATLTVDKSSSTAFMQLSSLTSQDSAVYFCARSPHYYGTTYNYPMDYWGQGTSVTVSSAKTTPPSVYPLAPGCGDTTGSSVTLGCLVKGYFPESVTVTWNSGSLSSSVHTFPALLQSGLYTMSSSVTVPSSTWPSQTVTCSVAHPASSTTVDKKLEP”, the “soluble on expression in E. coli” value was “soluble”.

In the case of “QVQLQESGGGLVQPGGSLRLSCAASGFTFSNSAMSWVRQAPGKGLEWVSSISGSGGNTYSADSVKGRFTISRDNAKNSLYLQMNSLRAEDTAVYYCARDWYGMDVWGQGTTVTVSS”, the “soluble on expression in E. coli” value is listed as “soluble”.

Take “QVQLQESGPGLMKPSETLSLTCSVSGDSIRSDYWSWIRKPPGKGLEYIGYVSYSGSTYYNPSLKSRVTISVDTSKNRFSLKLNSVTAADTAVYYCARWDGDYWGQGILVTVSS”: the “soluble on expression in E. coli” value is “soluble”.

For the sequence “QVQLQQPGAELVKPGTSVKLSCKASGYNFTSYWINWVKLRPGQGLEWIGDIYPGSGITNYNEKFKSKATLTVDTSSSTAYMQLSSLASEDSALYYCAGQYGNLWFAYWGQGTLVTVS”, the “soluble on expression in E. coli” value is “soluble”.

Consider “QYAPQTQSGRTSIVHLFEWRWVDIALECERYLGPKGFGGVQVSPPNENIVVTNPSRPWWERYQPVSYKLCTRSGNENEFRDMVTRCNNVGVRIYVDAVINHMCGSGAAAGTGTTCGSYCNPGSREFPAVPYSAWDFNDGKCKTASGGIESYNDPYQVRDCQLVGLLDLALEKDYVRSMIADYLNKLIDIGVAGFRIDASKHMWPGDIKAVLDKLHNLNTNWFPAGSRPFIFQEVIDLGGEAIKSSEYFGNGRVTEFKYGAKLGTVVRKWSGEKMSYLKNWGEGWGFMPSDRALVFVDNHDNQRGHGAGGSSILTFWDARLYKIAVGFMLAHPYGFTRVMSSYRWARNFVNGEDVNDWIGPPNNNGVIKEVTINADTTCGNDWVCEHRWREIRNMVWFRNVVDGQPFANWWDNGSNQVAFGRGNRGFIVFNNDDWQLSSTLQTGLPGGTYCDVISGDKVGNSCTGIKVYVSSDGTAQFSISNSAEDPFIAIHAESKL”, for which the “soluble on expression in E. coli” value is given as “soluble”.

With “RDIIQYIPARSSYGTPPFVPPGPSPYVGTGMQEYRKLRSTLDKSHSELKKNLKNETLKEVDELKSEAGLPGKAVSANDIRDEKSIVDALMDAKAKSLKAIEDRPANLYTASDFPQKSESMYQSQLLASRKFYGEFLDRHMSELAKAYSADIYKAQIAILKQTSQELENKARSLEAEAQRAAAEVEADYKARKANVEKKVQSELDQAGNALPQLTNPTPEQWLERATQLVTQAIANKKKLQTANNALIAKAPNALEKQKATYNADLLVDEIASLQARLDKLNAETARRKEIARQAAIRAANTYAMPANGSVVATAAGRGLIQVAQGAASLAQAISDAIAVLGRVLASAPSVMAVGFASLTYSSRTAEQWQDQTPDSVRYALGMDAAKLGLPPSVNLNAVAKASGTVDLPMRLTNEARGNTTTLSVVSTDGVSVPKAVPVRMAAYNATTGLYEVTVPSTTAEAPPLILTWTPASPPGNQNPSSTTPVVPKPVPVYEGATLTPVKATPETYPGVITLPEDLIIGFPADSGIKPIYVMFRDPRDVPGAATGKGQPVSGNWLGAASQGEGAPIPSQIADKLRGKTFKNWRDFREQFWIAVANDPELSKQFNPGSLAVMRDGGAPYVRESEQAGGRIKIEIHHKVRIADGGGVYNMGNLVAVTPKRHIEIHKGGK”, the “soluble on expression in E. coli” value was “not soluble”.

Regarding “RDIKDLIVALDIGTSKVVAVVAEILPEGRFEVLGLGQHESRGMRKGVVVNIETTVNSIQRALEEAELMADCKIRDVYAGIAGSHIRSFNSSGMVAVKDKEVTATDVARVIETAKAVNIPTDQ”, the “soluble on expression in E. coli” value is on record as “not soluble”.

In the case of “RDSGTVWGALGHGINLNIPNFQMTDDIDEVRWERGSTLVAEFKRKMKPFLKSGAFEILANGDLKIKNLTRDDSGTYNVTVYSTNGTRILDKALDLRILE”, the “soluble on expression in E. coli” value is given as “soluble”.

“REEYYVWDKEASINFIKPGQSDLFAEFEITDGMLDEIYQMTRNGEKCFPEFITHVKDKQGNVVSEVQRKLYVRKKPQYREEEAVTEVP”: the “soluble on expression in E. coli” value is recorded as “not soluble”.

Consider “RKPLQEPCTIFLIANGDLINPASRLLIPRKTLNQWDHVLQMVTEKITLRSGAVHRLYTLEGKLVESGAELENGQFYVAVGRDKFKKLPYGELLFD”, for which the “soluble on expression in E. coli” value is recorded as “soluble”.

For the sequence “RKVAAKMMQHQLEKHLKALNFDNPLFWTSLPTAADVCNAMNKRGLIYYCGDDFGALAGVDHQTVMEHERTLVDSADFILAASDKLAARFPDNKTTTLPHGVDFSLFSTPAEKASDLPNNGRKILGFYGSLSDWLDYRLIDQVAQHAPDWDLVFIGPNEFAHNPLPQRDNVHYLGPRAHHLLPSYSQHWDASWLPFVDNAQIKACNPLKLLE”, the “soluble on expression in E. coli” value is given as “not soluble”.

Consider “RLADRMSQEGWEDPGSSSAQAAAIEHDTFGRDNDGDVILLFTAKDGIAHSPSFDKIKKYLDSLKTDHSDHVDAVTSYFDKRNAQLISKDGTTAFAAVSLRGDGEQTLKDFRAIESDLHPQFPEVTVQVAGSTAVADALDKGMSGDIKRAE”, for which the “soluble on expression in E. coli” value is reported as “not soluble”.

Take “RLTRKEEWLREVLSSIREAIIVTNASGEIVLANPAASRLFMIEAARKRSIPVTNIEDAAMRELFERVQKRQSGIYNEELTAMTSKGKRTLKVTAVPVMRRGALFDGTVLVINDVT”: the “soluble on expression in E. coli” value is listed as “not soluble”.

For “RMMEGAIAIADLTVGDVMVPRSQMVSLPVESDLQTITKQMVESGHSRFPVHGENKDEVLGILLAKDLLRGVSANHTITNVHELLRPVGMIPESKKLNVLLKEFRLSHNHMAIVVDEYGGVAGLVTIEDILEQIVGDID”, the “soluble on expression in E. coli” value is “soluble”.

As for “RMNLFDLGTHHALVDYAHNPAGYEAVGAFVKNWPGERIGVVGGPGDRRDEDLILLGRIAAAVFDRIIVKEDDDKRGRHAGEVADLIRQGIQEENPNCQYETILDEQRALNVALDEAPQEALVVIFPES”, the “soluble on expression in E. coli” value is recorded as “not soluble”.

Consider “RPKLTDGVQSGDVQGDRALVWSRTDRPARMIVEWDTRSVFSEPRRLVSPVTDERLDYTARIDLRGLPADQSIFYRVRFEDARDGSLSKPWFGHLRSAPSEARNIRFVWSGDTCGQGFGINPDIGGMRIYEAMRRRQPDFFLHSGDTIYADGPIPERIETESGRIWRNRVTEAKSKVAETLDEFRGNYRYNLLDDNLRRFNAEVPQIWQWDDHETTNNWSSSKQLDERYQVKDIDVLAARARQAFLEYAPLRFQRQGRDGRIYRKVAYGPLLDVFVLDMRSYRGGNSANLQARRSAATDFLGREQLQWLKRELRGSRAQWKVIAADMPIGLCVPDGKDAQGRDRWEAIANGNDGAALGRELEIADLLRFVQRAGVRNTVWLTADVHYCAAHHYSPERAAFKDFAPFWEFVAGPLNAGSFGPNALDGTFGPQVMFQKAPLVQNSSPFAGYQFFGEVEIDAQSRALTVTLRDLDGEPVFSQELQPD”, for which the “soluble on expression in E. coli” value was “not soluble”.

On to “RPNDIYVNMKTDFKAQLARCQKLLDGGARGQNACSEIYIHGLGLAINRAINIALQLQAGSFGSLQVAANTSTVELVDELEPETDTREPLTRIRNNSAIHIRVFRVTPK”, for which the “soluble on expression in E. coli” value is recorded as “not soluble”.
